Source: patent US20060167220A1, “Methods and compositions for preparing peptides with excellent solubility characteristics in aqueous solution at physiological pH” (priority 2004, published 2006)

Test: Dissolution test of peptide sample (pH raised stepwise with NaOH until dissolved)
Type: physicochemical
Protocol: For example, a simple dissolution test can be used to evaluate the solubility characteristics of a peptide sample. The test is conveniently carried out at a temperature in the range of from about 20° C. to about 27° C., preferably about 25° C. From about 0.1 to about 0.3 grams of peptide is combined with about 1 to about 3 ml of an aqueous medium. The medium may be deionized water. In the case of T-20 or T-1249, these peptides are mildly acidic. Consequently, the medium optionally may include some initial amount base, e.g., about 17 mM Na2CO3 or the like, to provide a suitable initial pH. […] The mixture is rapidly stirred for 5 to 10 minutes between additional increments. Solids adhering to the sides of the testing vessel should be re-suspended. Rapid mixing should be maintained throughout. Results include observations regarding the clarity of the mixture, time required for dissolution, concentration and amount of caustic used, final pH upon dissolution (if this occurs below pH 9), and the like.
For purposes of the invention, peptides such as T-20, T-1249, and GLP-1, as well as counterparts of these, may be deemed to be in a more desired, deaggregated form if dissolution in accordance with this test occurs at a pH of less than about 8, preferably less than about 7.5. If dissolution occurs at a pH of greater than about 7.5, more preferably greater than about 8, the peptide is deemed to be in a less desired aggregated form. This helps to ensure the practicality of handling the peptide during subsequent processing and handling.

[1] = precipitated with 18% by volume acetonitrile

Acetyl-WQEWEQKITALLEQAQIQQE KNEYELQKLDKWASLWEWF-NH2 (Ac-WQEWEQKITALLEQAQIQQEKNEYELQKLDKWASLWEWF-NH2) [Sample T-1249, ID NO; 20]
Dissolution behavior (precipitated with 14% by volume acetonitrile): dissolved to some degree at a pH of 6.95 but not completely
Dissolution time [1]: 1 h
Final pH at dissolution [1]: 6.69
Turbidity in words [1]: only very faint turbidity
Dissolution pH (precipitated with 20 to 22 volume percent acetonitrile): around 9
Dissolution behavior (precipitated with no co-solvent): dissolved very slowly with high turbidity even after 14 to 18 hours and even at a pH of 8
